Source: patent publication US20030059769A1

Target: LS-Rg, chimeric protein of the extracellular domain of human L-selectin joined to the Fc domain of a human G2 immunoglobulin (human) (UniProt P14151)
Assay: competition of unlabeled antibody against radiolabeled 2'-F RNA ligand LF1807 on purified LS-Rg

LS-Rg, chimeric protein of the extracellular domain of human L-selectin joined to the Fc domain of a human G2 immunoglobulin (human), sequence (P14151 39-332, stated change not applied): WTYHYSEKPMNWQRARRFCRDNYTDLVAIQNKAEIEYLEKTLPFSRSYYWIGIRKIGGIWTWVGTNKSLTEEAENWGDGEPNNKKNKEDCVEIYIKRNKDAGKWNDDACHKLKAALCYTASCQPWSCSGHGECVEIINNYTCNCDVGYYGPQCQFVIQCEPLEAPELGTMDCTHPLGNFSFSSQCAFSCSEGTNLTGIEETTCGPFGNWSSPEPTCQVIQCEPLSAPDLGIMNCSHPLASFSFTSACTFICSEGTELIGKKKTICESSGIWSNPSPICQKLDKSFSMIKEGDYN

Substance: DREG-56, L-selectin specific blocking monoclonal antibody
- concentration for complete inhibition: 300 nM
